Experimental data as given in US12428627B2, “Mutant p-hydroxyphenylpyruvate dioxygenase, and coding nucleic acid and use thereof” (Qingdao Kingagroot Chemical Compound Co., Ltd., priority 2018, dated 2025).

Test system: transgenic rice
Assay: Herbicide resistance of transgenic rice (T0, T1 generation) sprayed with shuangzuocaotong
Format: in vivo
Text: • 1. Construction of overexpression vector • 1) Primers: primers were designed according to the selected restriction sites and the nucleotide sequence of the gene itself to amplify the three-site mutant HPPD (H141R/G342D/D370N) (OsHPPD3M). The designed primers were synthesized by Beijing Qingke Biotechnology Co., Ltd.: HPPD-F, […] ATGCCTCCCACT CCCACCC, HPPD-R, […] GGC. • 2) PCR amplification: the gene of interest was amplified by using the synthesized primer and Q5 DNA polymerase (NEB, New England Biolabs, Boston, USA). The amplified product was assayed by agarose gel electrophoresis, and the product was recovered according to operational instructions of the TIANquick Midi Purification kit. After the completion of the recovery, the concentration of extracted DNA was determined by Nanodrop. • 3) Construction of a rice overexpression vector: the rice overexpression vector pCAMBIA1301-OsHPPD3M was constructed with the recovered HPPD fragments and plasmid pCAMBIA1301 digested by KpnI and HindIII by using the HB-in Fusions™ seamless cloning kit of HanBio Biotechnology Co., Ltd., (Shanghai), and then transformed into the competent E. coli DH5α to obtain a positive clone; the positive clone was transformed into Agrobacterium after sequencing and restriction endonuclease digestion. • 2. […]

B1: H141R/G342D/D370N: three-site mutant rice HPPD (OsHPPD3M) (protein, listed as Oryza sativa)
chain: MPPTPTPTATTGAVSAAAAAGENAGFRLVGHRRFVRANPRSDRFQALAFHHVELWCADAASAAGRFAFALGAPLAARSDLSTGNSAHASLLLRSASVAFLFTAPYGGDHGVGADAATTASIPSFSPGAARRFAADHGLAVRAVALRVADAADAFRASVAAGARPAFQPADLGGGFGLAEVELYGDVVLRFVSHPDGADAPFLPGFEGVSNPGAVDYGLRRFDHVVGNVPELAPVAAYISGFTGFHEFAEFTAEDVGTAESGLNSVVLANNAETVLLPLNEPVHGTKRRSQIQTYLDHHGGPGVQHIALASDDVLGTLREMRARSAMGGFEFLAPPPPNYYDDVRRRAGDVLSEEQINECQELGVLVDRDNQGVLLQIFTKPVGDRPTFFLEMIQRIGCMEKDESGQEYQKGGCGGFGKGNFSELFKSIEEYEKSLEAKQAPTVQGS
modifications: The amino acid sequence of Wild-Type rice HPPD protein (OsHPPD _WT)
- shuangzuocaotong rate tolerated, T0 generation plants (T0 plants expressing the mutant, spraying): 8-16 grams active ingredient per mu
- shuangzuocaotong rate tolerated, T1 generation plants (T1 plants expressing the mutant, spraying): 32-64 grams active ingredient per mu
- resistance multiple of transgenic rice to HPPD-inhibiting herbicide (overexpression, field rate of shuangzuocaotong 4 g a.i./mu): at least 4
